In patent US9803013B2, “Biological materials and uses thereof” (BioInvent International AB, priority 2005, dated 2017):

B1: C11: fully human IgG1 antibody specific for surface IgM; VH and VL sequences of FIG. 11 (SEQ ID NOs. 10 and 12) (antibody, listed as Homo sapiens, V domains shown)
VH: EVQLLESGGGLVQPGGSLRLSCAASGFTFGSYEMNWVRQAPGKGLEWVSVIYSGGSTYYADSVEGRFTISRDNSKNTLYLQMNSLRAEDTAVYYCARDTNPYYYYGMDVWGQGTLVTVSS
VL: QSVLTQPPSASGTPGQRVTISCSGSSSNIGNNAVNWYQQLPGTAPKLLIYRNNQRPSGVPDRFSGSKSGTSASLAISGLRSEDEADYYCQSYDSSLNGQVFGGGTKLTVLG
B2: B11: fully human IgG1 antibody specific for ICAM-1; VH and VL sequences of FIG. 10 (SEQ ID NOs. 6 and 8) (antibody, listed as Homo sapiens, V domains shown)
VH: EVQLLESGGGLVQPGGSLRLSCAASGFTFSNAWMSWVRQAPGKGLEWVAFIWYDGSNKYYADSVKGRFTISRDNSKNTLYLQMNSLRAEDTAVYYCARYSGWYFDYWGQGTLVTVSS
VL: QSVLTQPPSASGTPGQRVTISCTGSSSNIGAGYDVHWYQQLPGTAPKLLIYDNNNRPSGVPDRFSGSKSGTSASLAISGLRSEDEADYYCQSYDSSLSAWLFGGGTKLTVLG

Tests used:
[1] = test system: carcinoma cell lines initially tested; assay: IgG binding to tumour cell lines, flow cytometry; set-up: species or system human; details: all carcinoma cell lines initially tested
From the text: FIG. 6—Binding of B1, B11, C11 IgG, to tumour cell lines of different origin. The antigen distribution of antigens targeted by the B1, B11, and C11 antibodies on different carcinoma cell lines was investigated by flow-cytometry.
The antigen distribution of human antibody targeted antigens, mainly for B11, on different carcinoma cell lines was investigated. Cells (MCF-7 and MDA MB 435S breast carcinoma, JAR and JEG-3 chorio-carcinoma, A549 lung carcinoma, TCC-SUP urinary bladder carcinoma, MDA MB 435 melanoma, HPAC, PANC-1 and BxPC-3 pancreatic carcinoma, PC-3 and DU145 prostate carcinoma, LS174 T, CaCo2, and Lovo colorectal carcinoma, and THP-1 monocytic leukaemia cells), were washed in PBS, and resuspended at 4×10^6 cells/ml in Complete Medium (200,000 cells/50 […] sample). […] Cells were incubated with either of the antibodies for 1 hour on ice, washed by resuspension in PBS/BSA 0.5%, centrifuged at 1200 rpm for 5 min, and complete aspiration of the supernatants was undertaken. Cells were incubated with PE-conjugated Goat F(ab′)2 anti-Human IgG (Caltag Laboratories, Cat no: H10104), diluted 1/50 in PBS/BSA 0.5%, for 30 min, on ice. Following resuspension of in 300 μl PBS/BSA 0.5%, cells were analysed for IgG binding using a FACScan instrument.

RPMI-8226 myeloma tumors = assay: Established RPMI-8226 tumors in SCID mice with macrophage or NK cell depletion; format: in vivo, mouse
From the text: Fc-FcγR-interactions, in addition to enhancing antibody induced negative signalling and tumor PCD (Wilson et al., 2011), may involve both innate and adaptive arms of cellular immunity (Alduaij and Illidge, 2011; Park et al., 2010). Different approaches to assess the role of NK cells and macrophages were used—two principal cell types capable of conferring FcγR dependent antitumor effects—for BI-505 therapeutic activity; Firstly, the relative abundance of these cell types in tumor tissue harvested from BI-505 or control antibody treated mice were examined. […] In contrast, very few intratumoral NK cells could be detected (CD49b^+ CD31^− cells). […] To verify this macrophages or NK cells were depleted, using clodronate liposomes and anti-asialo antibodies respectively, from SCID mice bearing established RPMI-8226 myeloma tumors and examined the effect on BI-505 anti-myeloma activity. A period of three weeks of macrophage and NK cell depletion was chosen as read out since this was the longest time-period where neither treatment affected animal well-being. […] Tumors of macrophage depleted BI-505 treated mice had doubled in size compared with tumors from animals receiving BI-505 treatment alone (VBI-505=95±39 mm^3, VBI-505+clodro=189±94 mm^3, p<0.001), but were similarly sized compared to tumors from control antibody treated mice (Vctrl IgG=198±90 mm^3, p>0.05). NK cell depletion, in contrast, had little or no effect on BI-505 antitumor activity. […]
Treatment with antibodies by intraperitoneal injection started either 1 day after cell inoculation (prophylactic model) or when tumors reached approximately 100 mm^3 (established model). […] Macrophage and NK cell depletion was assessed upon termination of tumor bearing mice exposed to effector cell depleting agents (see above), spleens were removed and splenocytes isolated by mincing through a cell strainer (70 μm nylon mesh, BD Falcon 352350), erythrocytes were removed by lysis according to manufacturer (BD Pharm Lyse 555899, BD Biosciences). […]

Molecule | binding [1] | tumor volume (RPMI-8226 myeloma tumors; BI-505 treatment alone, three weeks) [mm^3] | tumor volume (RPMI-8226 myeloma tumors; NK cell depleted (anti-asialo) BI-505 treated mice) [mm^3] | tumor volume (RPMI-8226 myeloma tumors; macrophage depleted (clodronate liposomes) BI-505 treated mice) [mm^3]
B1 | lack of binding | – | – | –
B2 | – | 95±39 | 130±53 | 189±94
